# According to article PMC5730197, “Evolution-guided adaptation of an adenylation domain substrate specificity to an unusual amino acid” (PLoS ONE, 2017):
# Key:
# Experiment in all cases: purified protein
# Assay type in all cases: biochemical, Streptomyces lincolnensis
# Details in all cases: amino acid-dependent exchange of 32P from PPi into ATP
# purified protein [1] = substrate: CC[C@H]1CN[C@H](C(=O)O)C1
# purified protein [2] = substrate: CCCC[C@H]1CN[C@H](C(=O)O)C1
# purified protein [3] = substrate: CCC[C@H]1CN[C@H](C(=O)O)C1
# purified protein [4] = substrate: CCCCC[C@H]1CN[C@H](C(=O)O)C1
protein,measurement,setting,value
"LmbC (Streptomyces lincolnensis) (protein, full-length stand-alone A-domain, C-terminal His8 tag kept, pET42b (plmbC1), E. coli BL21(DE3)) MSSSVRLSTLLASAAEARPEAPAVLGETRLPVTYGELAARAGGIQAALAGLGVRAGDRVALLSGRTDADAVAAVHAILAAGAVYVPLDAASPPARWASVSRVCAPTAVVGERALLDRFAAAVPGPRRLALPSDGDELPAGRLDPVRSDGTDVAYLLTTSGSTGVPKCVAHTGAGAVAFLEWMVGAFPVGGDDVFACHAPLHFDVSVASVLGSALGGAALAPVPRELSGFPVELATWIAERAVTVWLSVPYPLARLSGLEERAARERLATLRTVVFAGDVFPHQRLAALMRCAPGARFLNIYGPTETNGCTYEVVDAPPAGPVPIGRPVECAECWVEDDDGRPVDAVGSVGELVVAGPTVAAGYWGVEGHGAERFRTGETCPGGRAYATGDQVRVLPGGRYAFLGRMDNMIKMRGQRFELEEVENAVRLAPGVEDCCVVKVDVRDDHSRLLAVVVGPGAGDPRTLREHCLTRLPSWAVPHRFLTAAALPLGSTGKVDRRALREELVTRGE",Km,purified protein [1],6400 ± 300 µM
same,Km,purified protein [2],120 ± 6 µM
same,Km,purified protein [3],280 ± 30 µM
same,kcat,purified protein [3],0.55 ± 0.0167 s⁻¹
same,kcat/Km,purified protein [3],2000 M⁻¹ s⁻¹
same,Km,purified protein [4],60 ± 3 µM
same,kcat,purified protein [4],0.917 ± 0.0133 s⁻¹
same,kcat/Km,purified protein [4],15300 M⁻¹ s⁻¹
